From patent publication US20250042970A1 (AURINIA PHARMACEUTICALS, published 2025)
Substitutions are numbered along the chain they refer to.

B1: Variant BAv3-10-Ig (Fc fusion, human)
chain: AGQCSQNEYFDRLIRACIPCQLRCSSNTPPLTCQRYCNAGVTNSVKGTNAERKSSVECPPSPAPPVAGPSVFLFPPKPKDTLMISRTPEVTCVVVDVSHEDPEVQFNWYVDGVEVHNAKTKPREEQFNSTFRVVSVLTVVHQDWLNGKEYKCKVSNKGLPAPIEKTISKTKGQPREPQVYTLPPSREEMTKNQVSLTCLVKGFYPSDISVEWESNGQPENNYKTTPPMLDSDGSFFLYSKLTVDKSRWQQGNVFSCSVMHEALHNHYTQKSLSLSPGK
notes: domain: Fc; also called Variant 3-10-Ig; BAv3-10-PIg18
B2: Variant 50239698-Ig (Fc fusion, human)
chain: B1 chain with G2R, F10Y, I14L, A16S, I18V, Q21H, L22V, T28N, L31V
notes: domain: Fc; also called Parent 5
B3: Variant 50239040-Ig (Fc fusion, human)
chain: B1 chain with G2R, Q6P, N7S, F10Y, R12H, A16S, I18V, L31V, N38D
notes: domain: Fc; also called Parent 10
B4: Variant 50237854-Ig (Fc fusion, human)
chain: B1 chain with R12H, Q21D, L22V, T28N, L31V
notes: domain: Fc; also called Parent 4
B5: Variant 50240054-Ig (Fc fusion, human)
chain: B1 chain with G2Q, Q6P, L31V, A39T
notes: domain: Fc; also called Parent 2
B6: Variant 50234224-Ig (Fc fusion, human)
chain: B1 chain with E8D, F10Y, R12H, I14L, T28N
notes: domain: Fc; also called Parent 6
B7: Variant 50237847-Ig (Fc fusion, human)
chain: B1 chain with F10Y, R12H, I14L, I18V, P19S, Q21H, L22V, T28N, L31A, T32I
notes: domain: Fc; also called Parent 3
B8: Variant 50239978-Ig (Fc fusion, human)
chain: B1 chain with G2R, Q6P, F10Y, R12S, I18V, T28N, L31V
notes: domain: Fc; also called Parent 12
B9: Variant 50238504R-Ig (Fc fusion, human)
chain: B1 chain with F10Y, I18L, Q21H, L22V, L31A
notes: domain: Fc; also called Parent 8
B10: Variant 50238494-Ig (Fc fusion, human)
chain: B1 chain with N7S, F10Y, R15H, I18V, T28N, L31A
notes: domain: Fc; also called Parent 11
B11: BAv66-Ig (Fc fusion, human)
chain: B1 chain with R12H, L22G
notes: domain: Fc; also called Variant BAv66-Ig
B12: Variant 50238779-Ig (Fc fusion, human)
chain: B1 chain with G2Q, I14V, R15N, A16S, I18V, Q21R, T28N, R35H
notes: domain: Fc; also called Parent 1
B13: Variant 50237844-Ig (Fc fusion, human)
chain: B1 chain with N7S, F10Y, T28N, L31V, T32I
notes: domain: Fc; also called Parent 7
B14: BAv9-1-5L-pIg23 (Fc fusion, human)
chain: AGQCSQNEYFDHLIRACIPCQLRCSSNTPPLTCQRYCNAGVTNSVGGGGS
notes: domain: Fc; not shown: PIg23: PIg22 Fc with valine at 178 mutated to methionine

Legend:
[1] = biological target: T1, FLAG-tagged human BAFF (human, UniProt Q9Y275 134-285, limits assumed); assay: KinExA
T1 construct: used in BIACORE (Ex. 9) and KINEXA (Ex. 11); also called huBAFF
Protocol: (§1) Equilibrium measurements were performed using FLAG-tagged, recombinant huBAFF and huAPRIL ligands. Fixed ligand concentrations of human BAFF or human APRIL were incubated with serial dilutions of the variant BCMA ECD-Ig fusion polypeptides, and free ligand was detected in a KINEXA 3200 Instrument. variant BCMA ECD-Ig fusion polypeptides were first diluted in equilibration buffer (1×PBS, pH 7.4, 1 mg/ml BSA) to a range of concentrations from 10 nM to 100 fM. The linear portion of the dilution series was typically 2-fold. Ligands were diluted in equilibration buffer to fixed concentrations ranging from 5 to 20 pM and then incubated with the variant BCMA-Ig dilutions in total reaction volumes ranging from 4.5 to 15 ml. Samples were incubated at room temperature for 48-72 hours to reach equilibrium. For each data point, a fresh column of 850 μl of bead slurry coated with Variant BAv-238475-Ig was introduced into the KINEXA flow cell. Equilibrated samples ranging from 1 to 5 ml reaction volume were injected at a flow rate of 0.25 ml/min. […] The DyLight 649 fluorescent signal was detected using the red filter set (620/30 nanometer excitation filter, 670/40 nanometer emission filter, 645 nanometer dichroic filter) on the KinExA instrument and converted to a voltage signal that was directly proportional to the concentration of free ligand in the equilibrated sample.
(§2) The standard kinetic exclusion assays and data analyses described above were performed on protein preparations of various variant BCMA ECD-Ig fusion polypeptides, as well as Z-TACI-Ig and [S40G]huBCMA ECD-Ig fusion polypeptides. FIG. 8A, FIG. 8B, and Table 4 summarize the binding data for representative variant BCMA ECD-Ig polypeptides and controls in molar concentrations of huBAFF or huAPRIL determined by KINEXA binding assays.

[2] = biological target: T2, FLAG-tagged recombinant human APRIL (human, UniProt O75888 105-250); assay: KinExA
T2 construct: KINEXA ligand; also called huAPRIL
T2 sequence: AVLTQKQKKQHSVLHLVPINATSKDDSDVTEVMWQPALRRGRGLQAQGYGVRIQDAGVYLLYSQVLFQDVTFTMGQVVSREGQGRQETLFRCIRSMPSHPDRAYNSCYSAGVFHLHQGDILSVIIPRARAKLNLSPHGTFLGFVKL
Protocol: as §1, §2

[3] = biological target: T1, FLAG-tagged human BAFF; assay: KinExA; remark: listed apart in the source
Protocol: as §1
(§3) Table 5 provides the selectivities of exemplary variant BCMA polypeptides with respect to BAFF and APRIL.

[4] = biological target: T2, FLAG-tagged recombinant human APRIL; assay: KinExA; remark: listed apart in the source
Protocol: as §1, §3

[5] = biological target: T1, FLAG-tagged human BAFF; assay: BIACORE SPR
Text: (§4) The standard kinetic assay measures binding kinetics of trimeric ligand (e.g., human BAFF, cynomolgus monkey APRIL, mouse BAFF, or mouse APRIL) coated on sensor chips and dimeric analytes (e.g., variant BCMA-Ig fusion proteins) in the mobile phase. […] For human BAFF, cynomolgus monkey APRIL, and mouse APRIL measurements, mouse monoclonal antibody (IgG1) anti-FLAG M2 (Sigma Aldrich, Cat. No. F1804) was immobilized on CM3 sensor chips (GE Healthcare, Cat. No. BR-1005-41) according to the manufacturer's protocol. Antibody was diluted to 30 μg/ml in immobilization buffer (10 mM pH 5±0.20; GE Healthcare; GE Healthcare, Catalog No. BR-1003-51). […] Unreacted sites were quenched with 35 μl of 1M ethanolamine-HCl, pH 8.5 (GE Healthcare, GE Healthcare, Cat. No. BR-1000-50). This procedure typically yielded 3,000-4,000 response units (RU) of coupled antibody.
(§5) The fusion polypeptides were diluted in HBS-EP buffer and flowed over ligand-coated sensor chips. The variant BCMA-Ig and surrogate control fusion proteins were injected at three concentrations (1.5 nM, 15 nM, and 150 nM at 30 μl/min for 2 minutes per association phase) in a single binding cycle, followed by a 20 minute incubation with HBS-EP buffer containing no protein at the same flow rate. A similar protocol was followed for Z-TACI-Ig, except that the injections were at 4.5 nM, 45 nM, and 450 nM.
(§6) The analyses described above were performed on protein preparations of representative variant BCMA ECD-Ig fusion polypeptides, as well as the Z-TACI-Ig and [S40G]huBCMA ECD-Ig control fusion polypeptides, and the data is presented in Table 1.

[6] = biological target: T3, FLAG-tagged cynomolgous APRIL (cynomolgus monkey, UniProt A0ACM8R0G4 110-250 (rhesus entry)); assay: BIACORE SPR
T3 construct: FLAG-tagged, expressed with TPA signal peptide; also called cyAPRIL
T3 sequence: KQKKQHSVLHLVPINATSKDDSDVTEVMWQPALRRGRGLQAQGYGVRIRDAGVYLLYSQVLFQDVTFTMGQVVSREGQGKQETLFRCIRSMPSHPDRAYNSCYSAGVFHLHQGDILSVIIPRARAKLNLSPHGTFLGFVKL
Text: as §4, §5, §6

[7] = biological target: T1, FLAG-tagged human BAFF; assay: BIACORE SPR; remark: listed apart in the source
Protocol: (§7) For human BAFF, cynomolgus monkey APRIL, and mouse APRIL measurements, mouse monoclonal antibody (IgG1) anti-FLAG M2 (Sigma Aldrich, Cat. No. F1804) was immobilized on CM3 sensor chips (GE Healthcare, Cat. No. BR-1005-41) according to the manufacturer's protocol. Antibody was diluted to 30 μg/ml in immobilization buffer (10 mM pH 5±0.20; GE Healthcare; GE Healthcare, Catalog No. BR-1003-51). […] Unreacted sites were quenched with 35 μl of 1M ethanolamine-HCl, pH 8.5 (GE Healthcare, GE Healthcare, Cat. No. BR-1000-50). This procedure typically yielded 3,000-4,000 response units (RU) of coupled antibody.
as §5
(§8) Sequence optimization involved generating revertants from the variant BCMA ECD-Ig molecules using standard site-directed mutagenesis methods such as by SOEing as described herein above. Single as well as multiple revertants from twelve different variant-BCMA-pIg18 were generated, cloned in the pcDNA3.1 vector (Life Technologies, as described in Example 6), expressed and purified as described in Examples 6-8. The resulting proteins were assayed for their binding characteristics using Surface Plasmon Resonance as described in Example 9.

[8] = biological target: T3, FLAG-tagged cynomolgous APRIL; assay: BIACORE SPR; remark: listed apart in the source
Protocol: as §7, §5, §8

[9] = biological target: T1, FLAG-tagged human BAFF; assay: KinExA; remark: listed apart in the source
Protocol: as §1
The various fusion proteins described above were expressed and purified as described previously (Examples 2 and 3 for the CET1019AS based plasmids and Examples 7 and 8 for the pcDNA based plasmids). […] The BAv9-1-Ig Fc proteins typically exist in solution as a dimeric fusion protein. The purified fusion proteins were assayed for binding activity using BIACORE (Example 9) and KINEXA (Example 11) assays.

Binder	fold improvement over control [7]	fold improvement over control [8]	also measured
B1	–	–	fold improvement over control [1]: 400 fold; fold improvement over control [2]: 0.47 fold; Selectivity for huBAFF (KD APRIL/KD BAFF) [3]: 0.6 ratio; Selectivity for huAPRIL (KD BAFF/KD APRIL) [4]: 1.7 ratio; fold improvement KD vs control [5]: 24.6 fold; fold improvement KD vs control [6]: 1.1 fold
B2	5.5 fold	0.9 fold	–
B3	9.3 fold	0.3 fold	–
B4	5.5 fold	0.3 fold	–
B5	6.4 fold	0.7 fold	–
B6	4.2 fold	0.4 fold	–
B7	7.1 fold	0.4 fold	–
B8	10.1 fold	0.6 fold	–
B9	4.5 fold	0.2 fold	–
B10	7.6 fold	1.3 fold	–
B11	–	–	fold improvement KD vs control [5]: 1.3 fold; fold improvement KD vs control [6]: 0.00024 fold
B12	6.4 fold	0.5 fold	–
B13	5.5 fold	0.5 fold	–
B14	–	–	Kd [9]: 0.291 pM
